17 sequences from a protein production outcome set (Wang et al. 2014) can be followed below.
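Also: failed if final PepcDB status was selected cloned or expressed and not failed if soluble or beyond.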

The nature of the data set: label from the status in PepcDB records.
On to “MPQFASKAEEKNYYERQASLAEFLTWYHQQELPEYEKPSLTVDMVLLCYNKEADQLKVLLIQRKGHPFRNSWALPGGFVNRNESTEDSVLRETKEETGVVISQENIEQLHSFSRPDRDPRGWVVTVSYLAFIGEEPLIAGDDAKEVHWFNLERHGQHITLSHEDVEITLDLKTAASLGKDTLAFDHSEIIIKAFNRVVDKMEHEPQVLQVLGKDFTITEARKVFAKFLGVDYRSIDHSNFKKAMTQYFEELGERPVGIGRPSKIYQLKTTTGF”, for which the protein production result is “not failed”.
The value for “MPQHDKSRLVRIDTGPMINPVAGKPSRPIAGDASFRTVTAFEGGQGKVESGVWESTSGSFQSNTTGYIEYCHIIEGEARLVDPDGTVHAVKAGDAFIMPEGYTGRWEVDRHVKKIYFVTHLA” was “not failed”; that for “MPQPKKDKPDTPLRSDAQRNRERILAVATEELTHCANAPLSAIAKKAGVGQGTFYRNFPNREALVLEIYRYGMQQVAEAAPEMLATGEPDLALRQWMDRLAEFAMTKAGLADAIRLVTSAPGAPEKPRPTPLEDAAELLLRANHEAGTIRPGVTGDDFFLVLGGLWLIDPGENWQPRVTRFLDLVMDGLRAGAPGR” was “not failed”; that for “MPQSSRYSDEHVEQLLSEMVNVLEKHHAPTDLALMVLGNMVTNLINTSIAPAQRQILARSFAEALQASIKKADKAHLEHHHHHH” was “failed”.
Turning to “MPQVALFGAVGAIGQSIARTLRSQGQPYRVVGRSQSSLLKAYGADPLAEPVTWDPDQPASVEAAAAGIDTLIYLVGVDYWRFELHPQLMRQTLDGAIAAGVRRILLIGTVYPYGMARSNPVAEQHPRQPNSFKGRMRKAQEDLLWKAHADGKIQATVLRLPDFYGPGVDKSLLHGAFQAAVQGGTANLVGPLDRPHEFVFVPDVGPVVCRLIQQPEAFGKTWHLGGAGVTSQRELLELIRQHGGARFKQRVIGKPLLRLLGLFDPLLREMVEMHYLISSPLILDDSALQALIGPIAKTSYTEGVRQTLAASAGAPQNVKR”, the protein production entry is “failed”.
The value for “MPRALPRLPRPLLAVLSLSLTLGIAQADTAPLFSADGYRTTHYRSPTPQQVEGGQVVDTATLQSLLGQTPRPVLIDVYRRQWLQGRFIEDQPHSNLPGSLWLANTGDGELSPAWQDYFVRNLQKATAGHLDQPLVFYCRSDCWLSWNAVKRAKALGYNNLYWYRDGLDAWQQANLPLQPAQPVPFP” was “failed”; that for “MPRAPRCRAVRSLLRSHYREVLPLATFVRRLGPQGWRLVQRGDPAAFRALVAQCLVCVPWDARPPPAAPSFRQVSCLKELVARVLQRLCERGAKNVLAFGFALLDGARGGPPEAFTTSVRSYLPNTVTDALRGSGAWGLLLRRVGDDVLVHLLARCALFVLVAPSCAYQVCGPPLYQLGAATQARPPPHASGPRRRLGCE” was “failed”.
“MPRITQEISYNCDYGDNTFNLAIDIGGTLAKVVFSPIHSNRLMFYTIETEKIDKFMELLHSIIKEHNNGCYRMTHIIATGGGAFKFYDLLYENFPQIKGISRFEEMEGLIHGLDFFIHEIPDEVFTYNDQDGERIIPTSSGTMDSKAIYPYLLVNIGSGVSILKVTEPNNFSRVGGSSLGGGTLWGLLSLITGAQTYDQMLDWAQEGDNSSVDMLVGDIYGTDYNKIGLKSSAIASSFGKVFQNRMTSNKSLENNENKLYSSHESIEKNNGQMFKNPDICKSLLFAISNNIGQIAYLQAKINNIQNIYFGGSYTRGHLTTMNTLSYAINFWSQGSKQAFFLKHEGYLGAMGAFLSASRHSSTKKTST”: the protein production result is listed as “failed”.
The same measure for “MPRKQLKGETHDQKAQIASAFGEIEQSKIFLDKRSESAAVKMDIADLLKEIIQKQLRKDYDPEVESNIFINPERGDFEVYILKKIVKEVDLPTIEIGLDEVRQIDDSLELGDYYEEGPIKLDDYLTRKSIQIIKQSVQKKVRDLERLAVYEECLEKVGEVVAGEVYQVRPNEVIFTYNTSKDHRVELVLPKSEMMKKDNPRRTPRMKLYVKRIEREKVKVRNDDGTVEEREKPDGGMKVIVSRVDDRFLYKLFESEVPEILDGLIVIKGIARVPGERAKVAVESTSSRIDPVGATVGYRGKRIQSIVKELNNENIDVIYYTDEPQVFIARALQPAKIDPMTVHADMKTRKARVMLKPDQIKYAIGKNGNNIHLAEKLTGYEIDVYRDVIDKSLEDPNDIDIIEFREEFGDDMIYQLLDGGLDTAKKILKGGVEKIEEALLGTQKSEELFVFNKTRKPVKPKERRITDDEKRYWKKIAETIYRTVREQFNDEDLKALLDDSHERSLKGDGIDPEEIRDKETNLEHHHHHH”: “failed”; for “MPRPLSHRNLPMTPQGHCDSRFAPLAEAFARLFDNPQERGAALCLEVGGETVVDLWGGVADKDGEQPWQRDTILNLFSCTKTFTAVAVLQLVAEGKLELDAPVAHYWPEFAAAGKAAISVRQLLCHRAGLPALREQMPPEALYDWQAMTTALAAEEPWWTPGEAHGYAPITYGWLLGEVIRRVDGREPGEAIVARTAAPLGLDFHVGLDDSQFGRVAHMARSKGSLGDAAAQRMLKTMMSEPLALTTRAFTNPPSILTSTNKPEWRRMQQPAANGHGNARALAGFYSGLLQGRLLEDELLGQLAHEHAVGEDRTLLTRTRFGLGTMLDQPGVANATYGLGPKAFGHPGAGGSIGFADPERDLAFSFVSNALGPYVLMDPRAQQLARVAGECL”: “failed”; for “MPRSCDVVVVNYNAGLLLEDCVISVLAQDINRLVLVDNASHDGSLEQVATRFAADERLLILRNPSNTGFAAACNLGASHCEQPHILFLNPDTVLQPGALQGMIDALRHTHDLGMAGGLLCNFDGSEQPGGRRVFPTPRRAVVRALNLSGLAWLSPRLFSDFLLHREPLPSRPTQVEAISGACMLVKRKALDSVGGWDEGYFLHCEDLDLCMRFRQEGWKVCFVPQARIFHAWGACSRTRPVFVEWHKHRGMIRFYGKFFREDYPRVLSWSICAGVWLRFSFVVGYHWLAQLGRILGQPR”: “failed”.
The value for “MPRSTWFKALLLLVALWAPLSQAETGWQPIQETIRKSDKDNRQYQAIRLDNGMVVLLVSDPQAVKSLSALVVPVGSLEDPEAYQGLAHYLEHMSLMGSKKYPQADSLAEYLKMHGGSHNASTAPYRTAFYLEVENDALPGAVDRLADAIAEPLLDKKYAERERNAVNAELTMARTRDGMRMAQVSAETINPAHPGSKFSGGNLETLSDKPGNPVQQALKDFHEKYYSANLMKAVIYSNKPLPELAKMAADTFGRVPNKESKKPEITVPVVTDAQKGIIIHYVPALPRKVLRVEFRIDNNSAKFRSKTDELITYLIGNRSPGTLSDWLQKQGLVEGISANSDPIVNGNSGVLAISASLTDKGLANRDQVVAAIFSYLNLLREKGIDKQYFDELANVLDIDFRYPSITRDMDYVEWLADTMIRVPVEHTLDAVNIADRYDAKAVKERLAMMTPQNARIWYISPKEPHNKTAYFVDAPYQVDKISAQTFADWQKKAADIALSLPELNPYIPDDFSLIKSEKKYDHPELIVDESNLRVVYAPSRYFASEPKADVSLILRNPKAMDSARNQVMFALNDYLAGLALDQLSNQASVGGISFSTNANNGLMVNANGYTQRLPQLFQALLEGYFSYTATEDQLEQAKSWYNQMMDSAEKGKAFEQAIMPAQMLSQVPYFSRDERRKILPSITLKEVLAYRDALKSGARPEFMVIGNMTEAQATTLARDVQKQLGADGSEWCRNKDVVVDKKQSVIFEKAGNSTDSALAAVFVPTGYDEYTSSAYSSLLGQIVQPWFYNQLRTEEQLGYAVFAFPMSVGRQWGMGFLLQSNDKQPSFLWERYKAFFPTAEAKLRAMKPDEFAQIQQAVITQMLQAPQTLGEEASKLSKDFDRGNMRFDSRDKIVAQIKLLTPQKLADFFHQAVVEPQGMAILSQISGSQNGKAEYVHPEGWKVWENVSALQQTMPLMSEKNE” was “not failed”.
The same measure for “MPRSTWFKALLLLVALWAPLSQAETGWQPIQETIRKSDKDNRQYQAIRLDNGMVVLLVSDPQAVKSLSALVVPVGSLEDPEAYQGLAHYLEHMSLMGSKKYPQADSLAEYLKMHGGSHNASXAPYRTAFYLEVENDALPGAVDRLADAIAEPLLDKKYAERERNAVNAELTMARTRDGMRMAQVSAETINPAHPGSKFSGGNLETLSDKPGNPVQQALKDFHEKYYSANLMKAVIYSNKPLPELAKMAADTFGRVPNKESKKPEITVPVVTDAQKGIIIHYVPALPRKVLRVEFRIDNNSAKFRSKTDELITYLIGNRSPGTLSDWLQKQGLVEGISANSDPIVNGNSGVLAISASLTDKGLANRDQVVAAIFSYLNLLREKGIDKQYFDELANVLDIDFRYPSITRDMDYVEWLADTMIRVPVEHTLDAVNIADRYDAKAVKERLAMMTPQNARIWYISPKEPHNKTAYFVDAPYQVDKISEQTFADWQQKAANIALSLPELNPYIPDDFSLIKSEKKYDHPELIVDESNLRVVYAPSRYFSSEPKADVSLILRNPKAMDSARNQVMFALNDYLAGLALDQLSNQASVGGISFSTNANNGLMVNANGYTQRLPQLFQALLEGYFSYTATEDQLEQAKSWYNQMMDSAEKGKAFEQAIMPAQMLSQVPYFSRDERRKILPSITLKEVLAYRDALKSGARPEFMVIGNMTEAQATTLARDVQKQLGADGSEWCRNKDVVVDKKQSVIFEKAGNSTDSALAAVFVPTGYDEYTSSAYSSLLGQIVQPWFYNQLRTEEQLGYAVFAFPMSVGRQWGMGFLLQSNDKQPSFLWERYKAFFPTAEAKLRAMKPDEFAQIQQAVITQMLQAPQTLGEEALKLSKDFDRGNMRFDSRDKIVAQIKLLTPQKLADFFHQAVVEPQGMAILSQISGSQNGKAEYVHPEGWKVWENVSALQQTMPLMSEKNE”: “failed”; for “MPSDSQNNKRIAQNTLLLYFRMLFLMLVSLYTSRVNLNALGIEDFGIYNVVGGLVAMFSIISGSLVSSISRFITFELGTENKEKLKKVFSTAVSIQFFLVIIVVILAETIGLWFLNNKMVIPEERILAANIIYQFSIISFALSLMSIPYTGTIVAHEKMSAFAYISIFDVIGKLAVALTISIAPIDKLIWFAGFIVFNSTIIQSIYIFYCKRHFEECTYHFIFDKSLLKNMFGFAGWNFIGSIAAILRDQGGNIVINMFCGPAVNAARGVAMQVNNAVSGFVSNFQTALNPQITKSYASGNYDYMMQLIFQGARLSYYILLILALPIISNTHFILQLWLGQVPKHTVLFVQLVLFFTMSESLANPLINAMLATGKIKKFQIIVGGLNLVNLPLSYICLRLGCIPESVVIIAIIISMICEMARVIMLRNMIHFPARSFLKKVYFNVIFVTITASILPLYLHFILEENIYTFTLISVVSFSCTLLSILYIGCSSEERVMVFSKVKVIVNKVSKRYK”: “failed”.
As to “MPSEAKYTWDQELNEINIQFPVTGDADSSAIKIRIVGKKICVKNQGEIVIDGELLHEVDVSSLWWVINGDVVDVNVTKKRNEWWDSLLVGSESVDVQKLAENKHADMSMLDAEAREVVEKMMHNTSGKDSE”, the protein production entry was “not failed”.
The same measure for “MPSLTPRCIIVRHGQTEWSKSGQYTGLTDLPLTPYGEGQMLRTGESVFRNNQFLNPDNITYIFTSPRLRARQTVDLVLKPLSDEQRAKIRVVVDDDLREWEYGDYEGMLTREIIELRKSRGLDKERPWNIWRDGCENGETTQQIGLRLSRAIARIQNLHRKHQSEGRASDIMVFAHGHALRYFAAIWFGLGVQKKCETIEEIQNVKSYDDDTVPYVKLESYRHLVDNPCFLLDAGGIGVLSYAHHNIDEPALELAGPFVSPPEEESQHGDV”: “not failed”; for “MPSQSFNAFCPDWATALLNGFSQIFLQRHPLCGLLCLLAILVSAPALLGAALLGALAGLLTAQRRWYAKADRQAGLFSYNGVLLGLLLGLYLPWSVLLPPLIIAAGGLSAIITQQWLKRARNPASLPAYTAPFVGLGWLLLSLIEPLPAATQGVPGLSLANLLGGLFQGLGQIMFLGQPLAGLLILLGLLLASRRAAAWALFGSACGLLFALLLQEHAQALQGLGGYNCALVALALGQQARHPWRPLLGMLLALLISPGLVALGLAPLTAPFVLACWLVHTVDRVLGRNVRGDAPCAPPANPPRLR”: “failed”.
